The IC50 is the concentration at which inhibition is half-maximal. Low readings indicate higher potency, high ones lower potency.

The source of these data is patent publication US6399759.

For this assay, the target named is T1, Soli E2 (Solenopsis invicta).
T1 sequence: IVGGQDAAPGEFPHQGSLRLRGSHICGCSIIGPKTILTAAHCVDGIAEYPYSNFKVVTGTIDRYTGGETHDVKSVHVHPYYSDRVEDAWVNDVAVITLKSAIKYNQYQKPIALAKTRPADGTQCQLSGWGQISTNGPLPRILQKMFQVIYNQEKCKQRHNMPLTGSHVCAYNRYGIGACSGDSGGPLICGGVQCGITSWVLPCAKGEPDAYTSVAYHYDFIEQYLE
The assay can be described thus: cell-based or functional assay.

α-1-Proteinase Inhibitor, sequence (P01009 25-418 limits assumed): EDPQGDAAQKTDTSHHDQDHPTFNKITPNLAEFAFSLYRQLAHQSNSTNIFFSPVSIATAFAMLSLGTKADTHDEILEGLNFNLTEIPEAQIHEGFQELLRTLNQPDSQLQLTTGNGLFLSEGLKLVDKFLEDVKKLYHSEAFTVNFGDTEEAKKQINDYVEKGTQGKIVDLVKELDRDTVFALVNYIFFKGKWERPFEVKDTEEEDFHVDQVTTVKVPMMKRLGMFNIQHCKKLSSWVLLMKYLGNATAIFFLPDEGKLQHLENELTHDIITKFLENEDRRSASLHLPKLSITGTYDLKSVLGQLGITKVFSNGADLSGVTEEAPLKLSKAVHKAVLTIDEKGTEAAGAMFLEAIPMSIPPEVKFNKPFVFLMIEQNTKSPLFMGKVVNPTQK

In the case of Boc-Ala-Pro-Val-^p(OPh)2 (peptide), the Max Inhibition Rate/IC50 is 666. On the same count and under the same terms, to Boc-Val-Pro Val-^p(OPh)2 (peptide) belongs 735. In the case of Canadian Goose OM, the IC50 was 7.68 nM. Regarding “Canadian Goose OM Domain III (from UniProt P68393 1-54)”, the IC50 worked out at 27.3 nM.

With Domestic Goose OM, the IC50 worked out at 6.03 nM. Compared with the last substance, the IC50 is about 4.5-fold lower.

“Domestic Goose OM Domain III (from UniProt P68389 1-54)” yielded an IC50 of 5.58 nM. The IC50 values of the last two substances are within 1.5-fold of each other. Eglin C (from UniProt P01051 1-70) had an IC50 of 1.89 nM. As for Potato Inhibitor I, the IC50 turned out to be 9.13 nM. This IC50 lies about 4.8-fold higher than the previous one. The same measure, in the same setting: to Potato Inhibitor II belongs 10.1 nM.

Substance Z-Ala-Val-^p(OPh)2 (peptide) registered a Max Inhibition Rate/IC50 of 27.2. Same read-out and setting: then Z-Gly-Leu-Phe-CK (peptide), with below 0.1.

Consider Z-Leu-Phe-^p(OPh)2 (peptide), for which the Max Inhibition Rate/IC50 was below 0.1. On the same count and under the same terms, to Z-Phe-Leu-Phe-^p(OPh)2 (peptide) belongs below 0.1; to Z-Phe-Phe-^p(OPh)2 (peptide), below 0.1; to Z-Pro-Val-^p(OPh)2 (peptide), 36.6. Same read-out and setting: then Z-Val-Val-^p(OPh)2 (peptide), with 76.8. “α-1-Proteinase Inhibitor (from UniProt P01009 25-418)”: the IC50 came out at 0.604 nM.
